For experiment [1], the target named is human integrin αvβ5 (human) (UniProt P06756). Kind of experiment: flow cytometry on HMVEC-d; competitor mAb MAB 1961. Background: Flow cytometry measures light scatter and fluorescence of single cells or particles in a stream.
Experiment [2] concerns the target human integrin αvβ3 (human) (UniProt P06756). Kind of experiment: flow cytometry on HMVEC-d; competitor mAb LM609.
Experiment [3] deals with human integrin α5β1 (human) (UniProt P08648). Kind of experiment: flow cytometry on HMVEC-d; competitor mAb SAM-1.
UniProt P08648, sequence (P08648 42-1049, chain 1 of 2): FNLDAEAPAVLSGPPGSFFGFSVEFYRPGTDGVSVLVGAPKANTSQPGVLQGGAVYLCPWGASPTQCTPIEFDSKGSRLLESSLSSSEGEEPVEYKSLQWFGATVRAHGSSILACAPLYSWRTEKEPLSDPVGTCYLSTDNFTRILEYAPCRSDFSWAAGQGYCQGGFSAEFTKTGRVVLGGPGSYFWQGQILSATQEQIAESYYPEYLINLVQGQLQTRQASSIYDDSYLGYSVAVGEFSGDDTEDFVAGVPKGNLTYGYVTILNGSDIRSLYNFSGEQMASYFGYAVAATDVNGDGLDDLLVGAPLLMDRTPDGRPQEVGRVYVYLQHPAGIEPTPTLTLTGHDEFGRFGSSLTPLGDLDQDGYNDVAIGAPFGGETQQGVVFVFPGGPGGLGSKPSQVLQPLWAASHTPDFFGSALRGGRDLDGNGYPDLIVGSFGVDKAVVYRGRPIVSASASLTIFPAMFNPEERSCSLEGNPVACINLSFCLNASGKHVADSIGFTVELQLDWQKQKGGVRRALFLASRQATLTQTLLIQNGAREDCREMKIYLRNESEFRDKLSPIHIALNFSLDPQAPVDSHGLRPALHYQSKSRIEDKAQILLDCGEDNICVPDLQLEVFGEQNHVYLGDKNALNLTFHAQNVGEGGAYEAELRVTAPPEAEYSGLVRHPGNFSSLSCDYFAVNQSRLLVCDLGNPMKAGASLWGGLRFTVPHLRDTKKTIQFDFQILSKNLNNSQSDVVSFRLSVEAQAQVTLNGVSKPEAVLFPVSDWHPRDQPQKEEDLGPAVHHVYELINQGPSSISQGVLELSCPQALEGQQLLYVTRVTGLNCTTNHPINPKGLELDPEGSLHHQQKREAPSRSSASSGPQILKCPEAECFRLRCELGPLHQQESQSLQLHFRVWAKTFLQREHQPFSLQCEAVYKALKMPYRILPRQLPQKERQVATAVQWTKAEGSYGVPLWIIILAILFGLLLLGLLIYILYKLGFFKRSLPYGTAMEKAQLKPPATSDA
UniProt P08648, sequence (P05556 21-798, chain 2 of 2, further chain): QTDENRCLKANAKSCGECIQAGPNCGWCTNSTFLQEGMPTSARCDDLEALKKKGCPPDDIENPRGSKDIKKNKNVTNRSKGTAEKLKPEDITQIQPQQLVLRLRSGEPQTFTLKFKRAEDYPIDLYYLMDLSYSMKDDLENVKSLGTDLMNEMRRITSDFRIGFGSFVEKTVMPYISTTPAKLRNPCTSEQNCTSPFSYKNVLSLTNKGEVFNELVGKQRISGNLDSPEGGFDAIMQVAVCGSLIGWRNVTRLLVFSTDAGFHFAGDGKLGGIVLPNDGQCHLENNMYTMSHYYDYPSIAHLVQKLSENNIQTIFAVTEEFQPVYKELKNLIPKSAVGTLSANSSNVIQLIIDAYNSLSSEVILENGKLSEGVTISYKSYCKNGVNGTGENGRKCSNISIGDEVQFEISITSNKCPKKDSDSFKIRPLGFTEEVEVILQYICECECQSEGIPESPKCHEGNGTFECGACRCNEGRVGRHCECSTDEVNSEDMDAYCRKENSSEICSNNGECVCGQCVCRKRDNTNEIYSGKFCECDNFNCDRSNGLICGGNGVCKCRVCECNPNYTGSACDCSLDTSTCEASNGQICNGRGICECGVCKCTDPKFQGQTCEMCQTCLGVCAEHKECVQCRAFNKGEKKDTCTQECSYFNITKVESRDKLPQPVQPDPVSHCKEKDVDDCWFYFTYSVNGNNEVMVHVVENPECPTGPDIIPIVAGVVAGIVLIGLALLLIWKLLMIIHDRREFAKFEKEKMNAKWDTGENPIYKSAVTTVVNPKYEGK
A further experiment deals with α6β1.α6β4 (human) (UniProt P23229). Kind of experiment: flow cytometry on HMVEC-d; competitor α6 integrin mAb (GoH3 and/or 439-9B).
UniProt P23229, sequence (P23229 24-1130): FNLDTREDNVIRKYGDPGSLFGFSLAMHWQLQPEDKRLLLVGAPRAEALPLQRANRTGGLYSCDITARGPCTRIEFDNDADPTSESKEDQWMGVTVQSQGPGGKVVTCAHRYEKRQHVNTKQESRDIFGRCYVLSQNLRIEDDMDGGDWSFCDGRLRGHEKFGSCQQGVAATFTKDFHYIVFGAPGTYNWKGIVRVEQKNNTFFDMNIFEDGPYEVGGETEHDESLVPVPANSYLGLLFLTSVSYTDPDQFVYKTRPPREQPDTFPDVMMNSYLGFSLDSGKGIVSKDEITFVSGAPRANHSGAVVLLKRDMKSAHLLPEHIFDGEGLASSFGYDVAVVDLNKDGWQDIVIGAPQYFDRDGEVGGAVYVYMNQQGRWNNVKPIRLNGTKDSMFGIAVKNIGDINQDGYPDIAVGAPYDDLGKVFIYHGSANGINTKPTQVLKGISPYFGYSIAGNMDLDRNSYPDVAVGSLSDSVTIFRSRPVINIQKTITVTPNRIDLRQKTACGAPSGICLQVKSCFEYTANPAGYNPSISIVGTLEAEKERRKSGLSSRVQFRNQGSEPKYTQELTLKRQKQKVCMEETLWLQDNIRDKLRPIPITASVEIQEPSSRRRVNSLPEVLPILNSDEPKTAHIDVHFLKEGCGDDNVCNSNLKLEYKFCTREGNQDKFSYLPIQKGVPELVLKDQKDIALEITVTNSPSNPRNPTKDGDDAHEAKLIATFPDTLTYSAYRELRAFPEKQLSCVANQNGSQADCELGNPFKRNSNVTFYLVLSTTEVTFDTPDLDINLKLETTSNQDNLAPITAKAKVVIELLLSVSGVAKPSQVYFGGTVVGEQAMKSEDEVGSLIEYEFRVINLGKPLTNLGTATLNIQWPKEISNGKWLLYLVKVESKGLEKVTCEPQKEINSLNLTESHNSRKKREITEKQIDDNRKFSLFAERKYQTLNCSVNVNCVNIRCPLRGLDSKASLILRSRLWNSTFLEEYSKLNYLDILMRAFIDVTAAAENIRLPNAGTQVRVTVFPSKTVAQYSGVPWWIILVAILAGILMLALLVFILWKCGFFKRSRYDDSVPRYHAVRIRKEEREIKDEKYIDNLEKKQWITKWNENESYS
Experiment [4] addresses human integrin α2β1 (human) (UniProt P17301). Nature of the experiment: flow cytometry on HMVEC-d; competitor mAb BHA2.1.
UniProt P17301, sequence (P17301 30-1181, chain 1 of 2): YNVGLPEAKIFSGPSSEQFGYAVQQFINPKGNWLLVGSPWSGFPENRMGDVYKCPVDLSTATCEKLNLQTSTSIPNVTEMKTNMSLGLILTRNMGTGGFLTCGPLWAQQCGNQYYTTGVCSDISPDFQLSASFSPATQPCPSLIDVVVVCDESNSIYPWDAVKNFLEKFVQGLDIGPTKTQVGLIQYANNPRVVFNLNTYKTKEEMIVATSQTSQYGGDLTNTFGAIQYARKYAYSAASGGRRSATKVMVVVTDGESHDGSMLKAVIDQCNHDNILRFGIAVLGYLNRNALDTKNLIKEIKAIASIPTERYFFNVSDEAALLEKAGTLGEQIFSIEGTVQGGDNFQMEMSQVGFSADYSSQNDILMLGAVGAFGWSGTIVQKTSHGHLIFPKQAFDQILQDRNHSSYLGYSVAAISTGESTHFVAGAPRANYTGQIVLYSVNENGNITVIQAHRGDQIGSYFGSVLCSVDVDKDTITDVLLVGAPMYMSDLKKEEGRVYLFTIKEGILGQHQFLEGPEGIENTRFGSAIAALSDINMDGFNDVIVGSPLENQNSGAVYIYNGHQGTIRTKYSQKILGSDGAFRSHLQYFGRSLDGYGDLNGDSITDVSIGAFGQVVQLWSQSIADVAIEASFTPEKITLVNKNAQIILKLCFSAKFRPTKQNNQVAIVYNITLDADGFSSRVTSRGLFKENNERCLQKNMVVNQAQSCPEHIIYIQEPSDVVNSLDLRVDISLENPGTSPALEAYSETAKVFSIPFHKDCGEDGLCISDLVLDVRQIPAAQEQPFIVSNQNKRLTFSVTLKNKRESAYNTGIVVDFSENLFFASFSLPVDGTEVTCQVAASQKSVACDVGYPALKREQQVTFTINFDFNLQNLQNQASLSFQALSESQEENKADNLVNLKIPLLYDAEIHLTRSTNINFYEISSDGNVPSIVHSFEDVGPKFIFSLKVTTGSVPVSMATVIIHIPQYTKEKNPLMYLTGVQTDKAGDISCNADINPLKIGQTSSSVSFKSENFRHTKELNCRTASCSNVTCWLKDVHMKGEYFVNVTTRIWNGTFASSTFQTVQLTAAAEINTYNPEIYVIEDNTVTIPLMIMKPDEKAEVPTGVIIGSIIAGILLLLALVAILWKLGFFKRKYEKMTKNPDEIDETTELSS
UniProt P17301, sequence (P05556 21-798, chain 2 of 2, further chain): as the sequence (P05556 21-798, chain 2 of 2, further chain) above

Consider ADAM-15dis-Fc (Fc fusion), for which the percent inhibition of binding by integrin mAb is 25% in experiment [1], 60% in experiment [2] and 30% in experiment [3].
In turn, ADAM-20dis-Fc (Fc fusion) yielded a percent inhibition of binding by integrin mAb in experiment [2] of 58%.
Regarding ADAM-21dis-Fc (Fc fusion), the percent inhibition of binding by integrin mAb in experiment [3] worked out at 54%.
Turning to ADAM-22dis-Fc (Fc fusion), the values for the percent inhibition of binding by integrin mAb (with α6β1.α6β4 (human); in experiment [2]; in experiment [3]) were 32%, 42% and 36%, respectively.
For ADAM-23dis-Fc (Fc fusion), the percent inhibition of binding by integrin mAb in the experiment with α6β1.α6β4 (human) was found to be 31%; in experiment [4], 22%; in experiment [3], 49%.
